Source: the DeepSol protein solubility set

Test: soluble on expression in E. coli; label from the status in PepcDB or PDB records

| Sequence | soluble on expression in E. coli |
| --- | --- |
| MSDVENASLPPAIFIMGPTASGKTALAMTLREYLPVELISVDSALIYKDMDIGTAKPSADELARAPHRLIDILDPTESYSAADFRRDALREMADITAAGRIPLLVGGTMLYFKALLEGLSPLPPADAAVRQRIEEQAKEIGWEAMHRQLSEIDPTAAIRIHPNDPQRLSRALEVFFISGNTLTELTKTSGDALPYQVHQFAIAPAMRELLHQRIEQRFHQMLAAGFETEARALFARHDLHTDMPSIRCVGYRQMWSYLSGEIDYDEMVYRGVCATRQLAKRQMTWLRGWDDVCWLDSENPTEALDKVIQVVSALEHHHHHH | soluble |
| MSLKIKVYLYTRVSTSIQIEGYSLEAQKSRMKAFAIYNDYEIVGEYEDAGKSGKSIEGRIQFNRMMEDIKSGKDGVSFVLVFKLSRFARNAADVLSTLHIMQDYGVNLICVEDGIDSSKDAGKLMISVLSAVAEIERENIRIQTMEGRIQKAREGKWNGGFAPYGYKLEDGKLFINEEEAVAIRTIFDQYVNTTIGANGISKYLENHGIRKIPRQNGKNPLFDAGLIRKILKNPVYNGKIAFGRRTLEKVHGTRNEYKQVEQDEYLISEGIHEAIVSDEVWQAAQVKLKSQAKKYEHVNKGKDTRTHLLSGIVKCPICGVGMFGNKCIKKKKDGTKYKDFYYYGCNHRQMIRGHKCTFSKQIREELLDDAVAEVIVKIVSNPKFASMMQEKINMKVDTSEIEKEIDNYQKELRKSHSTKFKLIEEIDNLDVEDKHYKRRKQDLDDRLYRMYDKIDELESSLIDAKAKKQTIEAEKLTGDNIYKVLIYFDKLYKVMNDVERRQLISALISEIQVYEEKQSNGQWLKSITFKLPIIEENLNIDLDNDEQVECVSLLEKRSEGHHHHHH | soluble |
| MPLGLLWLGLALLGALHAQAQDSTSDLIPAPPLSKVPLQQNFQDNQFQGKWYVVGLAGNAILREDKDPQKMYATIYELKEDKSYNVTSVLFRKKKCDYAIATFVPGSQPGEFTLGNIKSYPGLTSYLVRVVSTNYNQHAMVFFKKVSQNREYFKITLYGRTKELTSELKENFIRFSKSLGLPENHIVFPVPIDQCIDG | soluble |
| MSLSSEPVVVAILPHAAELAEKIAAKIGGRVDLRGSDFTDTGAHLRSLFLAGHPIVGIGAAGIYIRSLASVLGDKNSEPPVLAVSEDARNIVPLLGGHHGANGLAKEIADYLETAAAVTTSGDVAMGVALDEPPQGWKLENPEDAKGAMAALLGGAKAQQSGNGDWLTPLSSRVEFSETDADAPVVLSVEGAAPLIYRRQSFALGLGCARGCDPDELIALVAKTLADNGRSIHEVAMVGSIDIKSDEAAIHAVARHLGVPARFFDADELNSVTPRLANPSEVVRAEVGVAGVSEGAALVMAGVSGALVIEKTKTANATCALARISQDGSEGHHHHHH | soluble |
| MGSDKIHHHHHHMNQSLRPDKAALVELFRDFIEPQYVINDEETQKPFECDGLSVYCDMPLITVLPKTVEQVCEVMRICYRYQIPVVARGAGTGLCAGAMPNPDGVLLVLSRFKHILDIDPLARSARLQPGVRNLAISEAASPYGLYYGPDPSSQIACSIGGNVAENSGGVHCLKYGLTTHNLLKIEMVTVEGELITIGSEGLDSNGFDLMALITGSEGLLGVITEVTVKLLPSPEKAQVIMAGFDNVQTAGDAVGGVIAKGIIPAGLEMMDSPAIIAAEAFAHAGYPTDAQALLLCELDGSEAEVQEQIAEVEQLFIELGATTTRVSQSEAERALLWKGRKSAFPAVGRISPDYYCMDGTIPRSQLAHVLTEMQKLSEQYGLRVANVFHAGDGNLHPLILFDANVPGELERTEEFGSRILELCVKVGGCITGEHGVGVEKIRQMTIQFNDQELTQFHAIKHAFDPIGTLNPGKGIPVLKRCQEYRTLDRPQHKHDSQPQQGDLA | not soluble |
| MAHSKHGLKEEMTMKYHMEGCVNGHKFVITGEGIGYPFKGKQTINLCVIEGGPLPFSEDILSAGFMYGDRIFTEYPQDIVDYFKNSCPAGYTWGRSFLFEDGAVCICNVDITVSVKENCIYHKSIFNGMNFPADGPVMKKMTTNWEASCEKIMPVPKQGILKGDVSMYLLLKDGGRYRCQFDTVYKAKSVPSKMPEWHFIQHKLLREDRSDAKNQKWQLTEHAIAFPSALA | soluble |
| MEWGVRFYVLSKQEWKQQTIDRCGQFYCLVPSNAGFHVYLFVTMDTGENAVFVFPPHFFIRYRERYWGKHSTLSGKILRKTYLKDNLVMRYGLQPGSEERVTGARIYSASSHGVALGIVLNDEAYLFKTFITYAMTKGEQIPLYMQEKLSMERAQVEYYNTGRLADLVELEERDRKRREMLMAEERRREEKEKRRAAEPGEAYFYVEGPLTLIMPDEEIQEENTGFWQRGTTMFCDSKLIEESQREMRELASVEARIQELKNIPQKAEEKKGVFKRLFGRYF | not soluble |
| MKIFVVGAHGQIGQLLVHRLLDRGDTVTGGYRDPIAQTPDPEKNFRAVELDLSWPVDRLADLYAGHDAIVFAAGSRGQDLLGVDLDGAVKTMKAAERADISRFIMLSALDAEDPDKWPDQLHDYYIVKYYADEWLIHNTDLDYVIVQPTALTNDPAQGSITLQPQRPSSIPRADVADVLVAALDSNRHRDTVKIASGNEAIVKALHVLEHHHHHH | not soluble |
| MGSDKIHHHHHHMIFFNKDEQLENIGNGILDATWAAFPTLARNQIALTWVVYDPPVRVNTGGALTPNAFWDHPVRGFTYRGVERIYPASVVKLFYLVAVNEWLEKGMSQTSKELERALRDMIVDSSNDATSLVVDILSGTTSGPELPTGPFETWKYQRNIVNRYYQSLGWEEMETINVCQKTWGDGPYGRERAFAGELLENRNMLTTNAIARLLHSIVGGVAVSSARSQAMMALLKRPLNDLPTDTEENQVTGFLGGGLPQNAQIWSKAGWTSQVRHDAAYIELPEQRPYLLVVFTEGKAQAKSQAILPFVSQQVADAISSL | not soluble |
| MILELDCGNSLIKWRVIEGAARSVAGGLAESDDALVEQLTSQQALPVRACRLVSVRSEQETSQLVARLEQLFPVSALVASSGKQLAGVRNGYLDYQRLGLDRWLALVAAHHLAKKACLVIDLGTAVTSDLVAADGVHLGGYICPGMTLMRSQLRTHTRRIRYDDAEARRALASLQPGQATAEAVERGCLLMLRGFVREQYAMACELLGPDCEIFLTGGDAELVRDELAGARIMPDLVFVGLALACPIE | not soluble |
| MGDPKAFLNIPRQEAGYRPVSERITDYSQVEQTLNTNSRKLQASRCMDCGVPFCHWACPIGNKQPEWQDALFKGKWKEAYEVLSSTCDFPEFTGRICPALCEKSCVLKLSCDQPVTIRENEAAIVEAAFREGYIQVQHPQRNGKKVAVVGAGPAGLVVANQLNLKGYTVTLFDKDEAAGGLLRFGIPNFKLDKNVIDRRMKILAAEGIQFEMGVEIDVNHLPEGFDAYCICTGTPTARDLSIPGRELKGIHFALEMLAQQNRILEGQTFPKDKLVNAKGKKVLVIGGGDTGSDCIGTSVRQGATSVTQIEIMPKPPVGHNPSTPWPQWPVVFKTTSSHEEGCTRRWCLTSNQFLGKNGKVTGVEVEEVEWTPATDGGRPTMNLTGKKEVIEADMVLLAMGFLKPEQPKFAENVFLAGDAATGASLVVRAMAGGRKAAADIDHYLVKLEHHHHHH | soluble |
| MGSDKIHHHHHHSDDKDSYPVPSDIENLKATPAPGQITLSWTNPADENLYYVQIEYTIGATGKSYRKQVSQYANELVIDNLLQKYGEINFTVQAFNRGNTAGTIHQITAQAEKASPTFGTPVKIDLDYKKIWTNAPFPTRPIKDLVDGNIATFFHSWWSSLVEMPHYLVVDLGEEVSAIKFRSTNTNRANDSSWKTINLYTSDSYNPAEWFDGVEKIDGNTVDISQAGTHKETTLTGLPDGVSEVYNSEVIPLSKPSRYLWFEVTETTKGTPYFALGELEIYQCSMVVLE | not soluble |
| MPAIVCQSALEAVSLIRSGETLWTHSMGATPKVLLDALAKHALTLDNITLLQLHTEGAESLSHPSLLGHLRHRCFFGGVPTRPLLQSGDADYVPIFLSEVPKLFRSGEQKIDTAIIQVSPPDKHGMCSLGISVEATLAACQVAGKIIAHINPQMPRTHGDGFIHIDRFAAVYEQSASLPIHSFATGDAVSLAIGQHVAELVRDGDCLQMGIGAIPDAVLSCLTGHKDLGVHTELFSDGILQLVEKGVINNTKKRFYPGKLVTGFALGSQKLYDYVDDNPAVIFMDIEQVNDTSIIRKNPNVMAINSALQVDLTGQVCADSIGTKIYSGVGGQMDFIRGAGLSEGGRSVIALPSTAAGGRISRIASVLSPGAGVVTTRAHVHYIVTEYGAANLKGRSLRERAQALINIAHPDFREQLSRDAFEVWGLNLLEHHHHHH | soluble |
| MQKPVMNPKQRIFIRGLGLPSSYVEAQKKRDEENAKN | not soluble |
| MSDLQKLIQGKIKTIAFAHDSTRVIQCFIQYGNEEQRKQAFQELQGDLVELSKAKYSRNIVKKFLMYGSKPQAAEIIRSFKGHVRKMLRHSEASAIVEYAYNDKAILEQRNMLTEELYGNTFQLYKSADHPTLDKVLELQPAKLELIMDEMKQVLTPMAQKEAVIKHSLVHKVFLDFFTYAPPKPRSELIEAIREAVVYLAHTHDGARVAMHCLWHGTPKDRKVIVKTMKTYVERVANVSAARARFLKSD | not soluble |
| MSLQQSPSTSRPQLGIGLIGTGFMGRAHALAFGSANAALELPARIHLAALADADSARAEQCAQAWGFDRSHADWQQLVEDPRVQIVAITTPNHLHFPMAMAAIAAGKAVYCEKPLAVSLAQADEMQRSAKAAGVVTQVGYNYQHNPMIGLAREMIEAGELGDIVSFQGEFSEDFMGSATSPWSWRCEAAHAGGALADLGSHLLAMARYLLGDIEAVCADANTVHSQRPASPGSNEMRAIAVDDQTHALLRFASGARGTFSSSWLKHGYKNHLSFEISGTQGTLTYDQERLNELRIYRPGAPGRDGFQRLLAGPAQPGYAAFCPAPGHQLGYNELKALEVQALILAVCGQGSRGPDFEEAWQIERLATAIRLAAHEQRWVALDDEGHHHHHH | soluble |
| MNPLAQKLNDEIKQSSPEVLDMMSQLGKDMFYPKGILSQSAEAKRTTYNATIGMATKKEGKMYANSLNQMFNDLTPDEIFPYAPPQGVEELRDLWQKKMLKENPDLKSKSISRPIVTNALTHGLSLVADLFVDTDDTVLLPTHNWGNYKLVFSTRHGAHIDTYSIFDNSGHFTTSELVKTLKEYKKDKVIIILNYPNNPTGYTPNKEEVNTIVNAIEELANKGTKVVTVVDDAYYGLFYEEVYQQSIFTALTQVKSSNLLPVRLDGATKEFFSWGFRVGFMTFGIDHETLKNALEAKVKGLIRSNISSSPLPSQSAIKHVLKHHEQFDKEIDQNINILKERYEVTKQVVYDNKYAKYWQAYDFNSGYFMSLKLNQVDPEELREHLINNYSIGIIALNSTDIRIAFSCVEKEDIPYVFESIANAIDDIK | not soluble |
| YNPLYSIENATSRRDTVLQNMVAAGKISQKQANEAKKVGMGNRISDTYVAKTDDYQYPSYFDAVISEASSVYGISEKDIVNNGY | not soluble |
| MSRVCQVTGKRVQTGNNVSHANNKTRRRFLPNLHKRRFWVASENRWVKLRVSTCAVRTIDKNGIDAVLAELRASGEKVLEHHHHHH | not soluble |
| MHRGITVQTSDLDDGVTGVVGKVYIEASPKHVWAAITDYNNHKSFVPKLIDSGLISDNGREQVMFERGKTGIFLFRKTVYIKLSLQGEYPKRLDFHQIEGDFKVYEGDWLIERASDGKGSILTFRAKIKPDFFAPAMFVRKVQQNDLPLEHHHHHH | soluble |
| MESKQPEDIHQDCELKQDELISKLQHSQQNFDNIKKILANFEKENENLADENEILKTRIASLEKDVKQEKNATKMAKSLNEETINELTLSEDLIESLKKQFQASKIELKEEILSKNKVEKDYSNDKRYFLEREQYLLITMESMESGKLEHEQQTEIMNKDVEELKIRVKELEATDLSEKNIELERQVGKLTAQLQDFESSRGYEQELILSQLEVQKRKLDKQLIDLQSKLERNPELVEFDKLHEELQTERMNMPVQVCYVHVSFIHKDIENLIYRKMNNNK | not soluble |
